Source: patent publication US7419813B2, “Fructosyl peptide oxidase” (Kikkoman Corporation, priority 2001, dated 2008)

Tests used:
[1] = type: physicochemical; settings: for pH of maximum remaining activity: 10 min; for stable pH range: purified oxidase, 30° C. for 10 minutes, remaining activities of 70% (Eupenicillium 60%) or higher
Description: For example, 200 mM acetic acid buffer (pH 3.0-6.0), 200 mM MES-NaOH (pH 6.0-7.0), 200 mM Tris buffer (pH 6.8-9.0), 200 mM potassium phosphate buffer (pH 6.5-8.0) and 200 mM glycine buffer (pH 8.0-12.0) are used as buffers to perform enzyme reactions at the indicated pH at 30° C. for 10 minutes, thereby determining the remaining activities of the oxidases of the invention. For example, the oxidases of the invention may have a stable pH at 5.0-10.0, preferably at 6.0-9.0. For example, 200 mM acetic acid buffer (pH 3.0-6.0), 200 mM MES-NaOH (pH 6.0-7.0), 200 mM Tris buffer (pH 6.8-9.0), 200 mM potassium phosphate buffer (pH 6.5-8.0) and 200 mM glycine buffer (pH 8.0-12.0) are used as buffers to perform enzyme reactions at the indicated pH at 30° C. for 10 minutes, thereby determining the remaining activities of the oxidases of the invention. For example, the oxidases of the invention that have less action on ε-fructosyl lysine may have a stable pH range at 5.0-10.0, preferably at 6.0-9.0. The inventive oxidase was treated with 200 mM acetic acid buffer (pH 3.0-6.0), 200 mM MES-NaOH (pH 6.0-7.0), 200 mM Tris buffer (pH 6.8-9.0), 200 mM potassium phosphate buffer (pH 6.5-8.0) or 200 mM glycine buffer (pH 8.0-12.0) at the indicated pH values at 30° C. for 10 minutes, and its remaining activity was determined. […] The inventive oxidase was treated with 200 mM acetic acid buffer (pH 3.0-6.0), 200 mM MES-NaOH (pH 6.0-7.0), 200 mM Tris buffer (pH 7.0-8.5), 200 mM potassium phosphate buffer (pH 6.0-8.0) or 200 mM glycine buffer (pH 8.0-12.0) at the indicated pH values at 30° C. for 10 minutes, and the remaining activity thereof was monitored.

[2] = Reaction with products obtained by digesting α-glycated hexapeptide with protease (96-well plate, 510 nm); type: biochemical; settings: purified enzyme; compared to 100% activity for fructosyl glycine; monitored at 510 nm for 70 minutes
Description: Glycated hemoglobin (HbA1c) may be treated with endoproteinase Glu-C to liberate α-glycated hexapeptide (fructosyl Val-His-Leu-Thr-Pro-Glu) from the glycated hemoglobin β-chain (Clin. Chem., 43; 10 1944-1951, 1997). Fructosyl Val-His-Leu-Thr-Pro-Glu (available from PEPTIDE INSTITUTE, INC), which is the same substance as the α-glycated hexapeptide, was used in the following experiment.
α-glycated hexapeptide (fructosyl Val-His-Leu-Thr-Pro-Glu, MW=856, available from PEPTIDE INSTITUTE, INC) (3.434 mg) was dissolved in 0.2 ml of water.
Molsin (15 mg, available from Kikkoman Corp.) was dissolved in 0.2 ml of buffer (10 mM acetate buffer, pH 3.0)
A (100 μl), B (5 μl) and C (5 μl) were mixed in a microtube and incubated at 37° C. for 17 hours. The reaction solution was then filtered using Microcon 10 (available from Amicon) to remove protease.
Developer solution consisted of the following materials:
• (a) Enzyme purified from Achaetomiella virescens ATCC 32393 • (b) Enzyme purified from Eupenicillium terrenum ATCC 18547 • (c) Enzyme purified from Coniochaeta sp. […]
Reaction substrate (D: a, b) (20 μl), developer solution (E) (20 μl) and the inventive oxidase (F: a-d) (10 μl) were mixed in 96-well assay plates for reaction. Each plate was monitored at 510 nm using a plate reader (Immuno Mini NJ-2300, available from Nalge Nunc International K. K.) for 70 minutes. […]

[3] = Optimum pH of the enzyme reaction; type: biochemical; settings: purified oxidase, 30° C.; for optimum pH (range): relative activities of 70% or higher
Description: For example, 200 mM acetic acid buffer (pH 3.0-6.0), 200 mM MES-NaOH (pH 6.0-7.0), 200 mM Tris buffer (pH 6.8-9.0), 200 mM potassium phosphate buffer (pH 6.5-8.0) and 200 mM glycine buffer (pH 8.0-12.0) are used as buffers to perform enzyme reactions at the indicated pH at 30° C., thereby determining optimal pH. For example, the oxidases of the invention may have an optimal pH at 5.0-9.0, preferably pH 6.0-8.0. For example, 200 mM acetic acid buffer (pH 3.0-6.0), 200 mM MES-NaOH (pH 6.0-7.0), 200 mM Tris buffer (pH 6.8-9.0), 200 mM potassium phosphate buffer (pH 6.5-8.0) and 200 mM glycine buffer (pH 8.0-12.0) are used as buffers to perform enzyme reactions at the indicated pH at 30° C., thereby determining optimal pH. For example, the oxidases of the invention that have less action on ε-fructosyl lysine may have an optical pH at 5.0-9.0, preferably at 6.0-8.0. Enzyme reaction was monitored in 200 mM acetic acid buffer (pH 3.0-6.0), 200 mM MES-NaOH (pH 6.0-7.0), 200 mM Tris buffer (pH 6.8-9.0), 200 mM potassium phosphate buffer (pH 6.5-8.0) or 200 mM glycine buffer (pH 8.0-12.0) at the indicated pH values at 30° C. […] Enzyme reaction was monitored in 200 mM acetic acid buffer (pH 4.0-6.0), 200 mM MES-NaOH (pH 6.0-7.0), 200 mM Tris buffer (pH 7.0-8.5), 200 mM potassium phosphate buffer (pH 6.0-8.0) or 200 mM glycine buffer (pH 8.0-9.0) at the indicated pH values at 30° C.

| Molecule | pH of maximum remaining activity [1] [pH] | stable pH range [1] | % relative activity on protease-digested α-glycated hexapeptide [2] [%] | pH of maximum activity (most preferable pH) [3] [pH] | optimum pH (range) [3] |
| --- | --- | --- | --- | --- | --- |
| Coniochaeta sp. NISL 9330: fructosyl peptide oxidase produced by Coniochaeta sp. NISL 9330 (FERM BP-7798) with less action on ε-fructosyl lysine; amino acid sequence SEQ ID NO: 1 (protein, listed as Coniochaeta sp.) MTSNRADTRVIVVGGGGTIGSSTALHLVRSGYAPANITVLDTFEIPSAQSAGHDLNKIMGIRLRNKVDLQMSLEARQMWKEDELFQPFFHNTGRMDCEHTPEGIEDLKKQYQALHDAGAGLEKTHAWLDNEDEILSKMPLLQRDQIQGWKAIWSQDGGWLAAAKAINAIGQFLKERGVKFGFGGAGSFKQPLFDDEGTTCIGVETADGTKYYADKVVLAAGAWSPTLVDLEDQCCSKAWVYAHIQLTPEEAAEYKGVPVVYNGEFGFFFEPNEFGVIKVCDEFPGFSRFKEHQPYGAPSPKHISVPRSHAKHPTDTYPDASEVSIKKAIATFLPRFQDKELFNRALCWCTDTADAALLMCEHPKWKNFILATGDSGHSFKILPNVGKHVVELIEGRLPEEMAYQWRWRPGGDALKSRRAAPPKDLADMPGWKHDPKL | ~7.0 | 5.0-9.0 pH | 10.0 | 7.0 | 6.0-8.0 pH |
| Eupenicillium terrenum ATCC 18547: fructosyl peptide oxidase produced by Eupenicillium terrenum ATCC 18547 with less action on ε-fructosyl lysine; amino acid sequence SEQ ID NO: 3 (protein, listed as Eupenicillium terrenum) MAHSRASTKVVVVGGGGTIGSSTALHLIRSGYTPSNITVLDVYKTPSLQSAGHDLNKIMGIRLRNGPDLQLSLESLDMWQNDELFKPFFHQVGMIDCSSSKEGIENLRRKYQTLLDAGIGLEKTNVWLESEDEILAKAPNFTREQVKGWKGLFCTDGGWLAAAKAINAIGIFLQDKGVKFGFGGAGTFQQPLFAADGKTCIGLETTDGTKYFADKVVLAAGAWSPTLVDLEDQCVSKAWVFAHIQLTPKEADAYKNVPVVYDGEYGFFFEPNEYGVIKVCDEFPGFSRFKLHQPYGAASPKMISVPRSHAKHPTDTYPDASEVTIRKAIARFLPEFKDKELFNRTMCWCTDTADANLLICEHPKWKNFILATGDSGHSFKLLPNIGKHVVELLEGSLSQEMAGAWRWRPGGDALRSRRGAPAKDLAEMPGWKHDAHL | 8.0 | 6.0-9.0 pH | 9.5 | 7.0 | 6.0-8.0 pH |
